# Data taken from article PMC9219861.
# Biological target: ULK1 (UniProt O75385)
# Assay: FLAG co-IP, ULK1 blot
# Details: reference: Flag-CHK2 WT, EBSS; sites T68
substance,measurement,value
"CHK2 (from UniProt O96017) Flag-CHK2 T68A, EBSS",binding against the reference,weaker
